The assay has as its target KLB + bFKB1. Nature of the assay: SPR; preformed bFKB1/KLB complex. A general note: Surface plasmon resonance follows binding to a sensor surface in real time, without labels.

B1: FGFR1b (receptor)
chain: RPSPTLPEQAQPWGAPVEVESFLVHPGDLLQLRCRLRDDVQSINWLRDGVQLAESNRTRITGEEVEVQDSVPADSGLYACVTSSPSGSDTTYFSVNVSDALPSSEDDDDDDDSSSEEKETDNTKPNRMPVAPYWTSPEKMEKKLHAVPAAKTVKFKCPSSGTPNPTLRWLKNGKEFKPDHRIGGYKVRYATWSIIMDSVVPSDKGNYTCIVENEYGSINHTYQLDVVERSPHRPILQAGLPANKTVALGSNVEFMCKVYSDPQPHIQWLKHIEVNGSKIGPDNLPYVQILKTAGVNTTDKEMEVLHLRNVSFEDAGEYTCLAGNSIGLSHHSAWLTVLEALEERPAVMTSPLYLE
The koff is the first-order rate constant of dissociation. For the molecule B1, the koff worked out at 0.0402 s⁻¹.

B2: FGFR1c (receptor)
chain: RPSPTLPEQAQPWGAPVEVESFLVHPGDLLQLRCRLRDDVQSINWLRDGVQLAESNRTRITGEEVEVQDSVPADSGLYACVTSSPSGSDTTYFSVNVSDALPSSEDDDDDDDSSSEEKETDNTKPNPVAPYWTSPEKMEKKLHAVPAAKTVKFKCPSSGTPNPTLRWLKNGKEFKPDHRIGGYKVRYATWSIIMDSVVPSDKGNYTCIVENEYGSINHTYQLDVVERSPHRPILQAGLPANKTVALGSNVEFMCKVYSDPQPHIQWLKHIEVNGSKIGPDNLPYVQILKTAGVNTTDKEMEVLHLRNVSFEDAGEYTCLAGNSIGLSHHSAWLTVLEALEERPAVMTSPLYLE
On to B2, for which the koff worked out at 0.00291 s⁻¹.

The values above are taken from patent publication US20250011471A1 (published 2025).
